Measurements published in patent publication US20130209489A1 (Amgen, published 2013).

The binders below were run against mature human myostatin (human, UniProt O14793 267-375) (assay: cell-based or functional assay).

| Binder | IC50 (nM), C2C12/pMARE luciferase reporter cell myostatin activity assay [nM] |
| --- | --- |
| anti-myostatin antibody 12A5-1 (antibody, V domains shown) VH: EVQLVESGGGLVQPGGSLRLSCAASGFTFSNYWMNWVRQAPGKGLEWVAQIRLKSDNYATHYAESVKGRFTISRDNAKNSLYLQMNSLRAEDTAVYYCARGLDYWGQGTTVTVSS VL: DIQMTQSPSSLSASVGDRVTITCKASQDINKYVAWYQQKPGKAPKLLIYYTSTLQPGVPSRFSGSGSGTDFTFTISSLQPEDIATYYCLQYDNLLYTFGQGTKLEIK | 473 |
| anti-myostatin antibody 12A5-9 (antibody, V domains shown) VH: EVQLVESGGGLVQPGGSLRLSCAASGFTFRNYWCNWVRQAPGKGLEWVAQIRLKSDNYATHYAESVKGRFTISRDNAKNSLYLQMNSLRAEDTAVYYCTEGLDYWGQGTTVTVSS VL: DIQMTQSPSSLSASVGDRVTITCKASQDINKYVAWYQQKPGKAPKLLIYYTRTLQPGVPSRFSGSGSGTDFTFTISSLQPEDIATYYCLQYDNLLYTFGQGTKLEIK | 3.98 |
| anti-myostatin antibody 12A5-3 (antibody, V domains shown) VH: EVQLVESGGGLVQPGGSLRLSCAASGFTFSNYWCNWVRQAPGKGLEWVAQIRLKSDNYATHYAESVKGRFTISRDNAKNSLYLQMNSLRAEDTAVYYCTEGLDYWGQGTTVTVSS VL: DIQMTQSPSSLSASVGDRVTITCKASQDINKYVAWYQQKPGKAPKLLIYYTSFLQPGVPSRFSGSGSGTDFTFTISSLQPEDIATYYCLQYDNLLYTFGQGTKLEIK | 2.53 |
| anti-myostatin antibody 12A5-6 (antibody, V domains shown) VH: EVQLVESGGGLVQPGGSLRLSCAASGFTFSRYWMNWVRQAPGKGLEWVAQIRLKSDNYATHYAESVKGRFTISRDNAKNSLYLQMNSLRAEDTAVYYCTEGLDYWGQGTTVTVSS VL: DIQMTQSPSSLSASVGDRVTITCKASQDINKYVAWYQQKPGKAPKLLIYYTSFLQPGVPSRFSGSGSGTDFTFTISSLQPEDIATYYCLQYDALLYTFGQGTKLEIK | 1.64 |
| anti-myostatin antibody 12A5-8 (antibody, V domains shown) VH: EVQLVESGGGLVQPGGSLRLSCAASGFTFRNYWCNWVRQAPGKGLEWVAQIRLKSDNYATHYAESVKGRFTISRDNAKNSLYLQMNSLRAEDTAVYYCTEGLDYWGQGTTVTVSS VL: DIQMTQSPSSLSASVGDRVTITCKASQDINKYVAWYQQKPGKAPKLLIYYTKTLQPGVPSRFSGSGSGTDFTFTISSLQPEDIATYYCLQYDNLLYTFGQGTKLEIK | 4.96 |

Next, values leading:

| IC50 (nM), C2C12/pMARE luciferase reporter cell myostatin activity assay [nM] | Binder |
| --- | --- |
| 1.45 | anti-myostatin antibody 12A5-18 (antibody, V domains shown) VH: EVQLVESGGGLVQPGGSLRLSCAASGFTFRNYWCNWVRQAPGKGLEWVAQIRLKSDNYATHYAESVKGRFTISRDNAKNSLYLQMNSLRAEDTAVYYCTEGLDYWGQGTTVTVSS VL: DIQMTQSPSSLSASVGDRVTITCKASQDINKYVAWYQQKPGKAPKLLIYYTSHLQPGVPSRFSGSGSGTDFTFTISSLQPEDIATYYCLQYDNLLYTFGQGTKLEIK |
| 1.45 | anti-myostatin antibody 12A5-12 (antibody, V domains shown) VH: EVQLVESGGGLVQPGGSLRLSCAASGFTFSNYWLNWVRQAPGKGLEWVAQIRLKSDNYATHYAESVKGRFTISRDNAKNSLYLQMNSLRAEDTAVYYCTEGLDYWGQGTTVTVSS VL: DIQMTQSPSSLSASVGDRVTITCKASQDINKYVAWYQQKPGKAPKLLIYYTSWLQPGVPSRFSGSGSGTDFTFTISSLQPEDIATYYCLQYDNLLYTFGQGTKLEIK |
| 3.08 | anti-myostatin antibody 12A5-10 (antibody, V domains shown) VH: EVQLVESGGGLVQPGGSLRLSCAASGFTFRNYWCNWVRQAPGKGLEWVAQIRLKSDNYATHYAESVKGRFTISRDNAKNSLYLQMNSLRAEDTAVYYCTEGLDYWGQGTTVTVSS VL: DIQMTQSPSSLSASVGDRVTITCKASQDINKYVAWYQQKPGKAPKLLIYYTSTLQPGVPSRFSGSGSGTDFTFTISSLQPEDIATYYCLQYDNKLYTFGQGTKLEIK |
